Measurements: patent US20220002699A1

Target: SARS-CoV-2 spike (S) glycoprotein on live SARS-CoV-2 virus (SARS-CoV-2) (UniProt P0DTC2)
Test: cell-based or functional assay

For Neg control, the in vitro virus neutralization EC50 was over 10 µg/mL.
